Patent publication US20250066500A1

Assays:
Experiment in all cases: cell-based or functional assay
TGFβ1 (R&D systems) = TGFβ1 (R&D systems) (UniProt P01137)
[1] = biological target: IL-2Rα, IL-2Rβ and common γ chain on CTLL-2 cells
[2] = biological target: IL-2Rβ and common γ chain on 32Dβ cells

Sequence of UniProt P01137 (P01137 279-390 limits assumed): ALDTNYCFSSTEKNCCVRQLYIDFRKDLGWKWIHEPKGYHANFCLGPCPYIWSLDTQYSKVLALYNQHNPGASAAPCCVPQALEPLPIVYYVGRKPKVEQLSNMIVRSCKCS

Row | IC50 of inhibition of TGFβ1 activity in HEK-Blue TGFβ reporter cells (QUANTI-Blue OD at 620-655 nM) (TGFβ1 (R&D systems)) [pM] | EC50 of CTLL-2 cell proliferation (WST1, absorbance at 450 nM) [1] [pM] | EC50 of 32Dβ cell proliferation (WST1, absorbance at 450 nM) [2] [pM] | Substance
1 | 461 | – | – | TGFR-Fc (R&D Systems) (Fc fusion)
2 | – | 253 | 65.5 | recombinant IL2 (Proleukin) (from UniProt P60568 22-153) (ligand)
3 | – | 548 | 140 | recombinant IL-2 (from UniProt P60568 21-153) (ligand)
4 | – | – | 10.6 | recombinant IL-15 (from UniProt P40933 49-162) (ligand)
